The target in the data set is Int-His6 (bacteriophage lambda integrase, with IHF; BP Clonase) (Bacteriophage lambda) (UniProt P03700+P0A6X7+P0A6Y1). Kind of data set: cell_activity. As to conditions: degenerate pool vs attB1-LacZa-attB2, overnight.
Chain of UniProt P03700 (P03700 whole entry, chain 1 of 3): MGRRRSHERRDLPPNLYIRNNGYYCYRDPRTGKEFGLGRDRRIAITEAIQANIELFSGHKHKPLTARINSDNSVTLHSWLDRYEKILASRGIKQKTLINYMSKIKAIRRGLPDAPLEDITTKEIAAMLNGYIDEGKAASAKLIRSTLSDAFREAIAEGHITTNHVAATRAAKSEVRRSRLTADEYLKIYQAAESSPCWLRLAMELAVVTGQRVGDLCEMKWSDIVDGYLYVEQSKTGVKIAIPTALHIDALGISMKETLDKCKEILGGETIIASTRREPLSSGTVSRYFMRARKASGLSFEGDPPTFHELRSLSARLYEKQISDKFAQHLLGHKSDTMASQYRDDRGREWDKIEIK
Chain of UniProt P03700 (P0A6X7 2-99, chain 2 of 3): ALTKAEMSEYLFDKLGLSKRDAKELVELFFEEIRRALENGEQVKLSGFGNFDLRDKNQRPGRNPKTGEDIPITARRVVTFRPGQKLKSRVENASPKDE
Chain of UniProt P03700 (P0A6Y1 whole entry, chain 3 of 3): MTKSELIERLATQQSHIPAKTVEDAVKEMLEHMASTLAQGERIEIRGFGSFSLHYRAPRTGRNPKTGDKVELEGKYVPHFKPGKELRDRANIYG
As for “GGGGACCACTTTGTACAAGNNNNNTGGGT (double strand) [attB2n16-20]”, the binding signal is 0.9%.

In turn, “GGGGACAAGTTTGTACAAANNNNNAGGCT (double strand) [attB1n16-20]” yielded a binding signal of 1.5%.

Sequence “GGGGACAAGTTTGTACAAAAAAGCNNNNN (double strand) [attB1n21-25]” gave a binding signal of 14%.

As for “GGGGACCACTTTGTACAAGAAAGCNNNNN (double strand) [attB2n21-25]”, the binding signal amounted to 21%.

The values above are taken from US20150093787.
